We go through 4 molecules from PMC4215182.

Series [1] deals with CPSF complex (CPSF73-3xFlag immunopurified) (human? (HEK293), UniProt Q10570;Q9C0J8;Q9P2I0;Q9UKF6;Q6UN15;O95639;Q92797 …). In words: EMSA. On the technique in general: Mobility shift assays separate free from complexed probe on a gel.
For series [2], the target named is T1, CPSF30 (within CPSF complex) (human? (HEK293), UniProt O95639 1-269). In words: UV cross-linking.
Series [3] addresses T2, Wdr33 (within CPSF complex) (human? (HEK293), UniProt Q9C0J8 1-1336).
T2 sequence: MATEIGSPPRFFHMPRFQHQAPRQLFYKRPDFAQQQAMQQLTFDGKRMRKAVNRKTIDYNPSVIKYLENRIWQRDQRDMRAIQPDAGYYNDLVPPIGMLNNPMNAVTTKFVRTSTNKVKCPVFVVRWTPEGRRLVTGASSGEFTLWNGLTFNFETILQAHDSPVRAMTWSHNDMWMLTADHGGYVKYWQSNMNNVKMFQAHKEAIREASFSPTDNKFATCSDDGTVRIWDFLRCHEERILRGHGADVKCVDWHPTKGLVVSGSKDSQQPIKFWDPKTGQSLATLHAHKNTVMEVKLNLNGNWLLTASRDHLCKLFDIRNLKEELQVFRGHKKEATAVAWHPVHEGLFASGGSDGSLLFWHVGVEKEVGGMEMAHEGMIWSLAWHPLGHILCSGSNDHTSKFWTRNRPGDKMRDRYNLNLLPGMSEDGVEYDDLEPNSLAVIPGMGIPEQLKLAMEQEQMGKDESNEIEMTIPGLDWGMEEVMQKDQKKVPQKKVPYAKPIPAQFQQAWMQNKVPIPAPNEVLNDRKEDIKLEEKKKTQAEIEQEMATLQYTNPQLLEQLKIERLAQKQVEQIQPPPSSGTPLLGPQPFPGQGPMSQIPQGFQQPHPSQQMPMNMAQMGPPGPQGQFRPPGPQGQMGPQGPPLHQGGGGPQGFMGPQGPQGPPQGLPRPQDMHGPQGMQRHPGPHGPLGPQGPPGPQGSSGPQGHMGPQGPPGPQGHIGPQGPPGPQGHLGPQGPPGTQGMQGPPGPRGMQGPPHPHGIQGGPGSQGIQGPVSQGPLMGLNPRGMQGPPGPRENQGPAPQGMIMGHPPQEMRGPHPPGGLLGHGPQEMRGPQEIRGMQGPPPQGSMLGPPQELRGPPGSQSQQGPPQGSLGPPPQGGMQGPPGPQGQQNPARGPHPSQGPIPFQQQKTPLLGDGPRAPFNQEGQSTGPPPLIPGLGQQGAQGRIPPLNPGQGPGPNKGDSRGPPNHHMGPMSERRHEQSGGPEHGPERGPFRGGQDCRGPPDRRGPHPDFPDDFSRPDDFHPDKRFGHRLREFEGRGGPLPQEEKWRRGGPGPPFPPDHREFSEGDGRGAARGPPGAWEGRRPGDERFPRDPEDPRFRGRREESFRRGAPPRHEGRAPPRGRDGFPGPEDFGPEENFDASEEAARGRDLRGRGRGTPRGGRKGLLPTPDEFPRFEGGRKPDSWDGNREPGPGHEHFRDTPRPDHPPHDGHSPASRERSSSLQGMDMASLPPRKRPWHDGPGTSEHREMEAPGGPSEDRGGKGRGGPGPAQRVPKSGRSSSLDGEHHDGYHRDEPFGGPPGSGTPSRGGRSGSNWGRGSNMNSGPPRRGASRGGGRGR
As to the kind of experiment: UV cross-linking.

For series [4], the target named is T1, CPSF30 (within CPSF complex). As to the kind of experiment: UV cross-linking, RNase, IP.
In series [5] the target is T2, Wdr33 (within CPSF complex). As to the kind of experiment: UV cross-linking, RNase, IP.
In series [6] the target is T3, Fip1 (within CPSF complex) (human? (HEK293), UniProt Q6UN15 1-594).
T3 sequence: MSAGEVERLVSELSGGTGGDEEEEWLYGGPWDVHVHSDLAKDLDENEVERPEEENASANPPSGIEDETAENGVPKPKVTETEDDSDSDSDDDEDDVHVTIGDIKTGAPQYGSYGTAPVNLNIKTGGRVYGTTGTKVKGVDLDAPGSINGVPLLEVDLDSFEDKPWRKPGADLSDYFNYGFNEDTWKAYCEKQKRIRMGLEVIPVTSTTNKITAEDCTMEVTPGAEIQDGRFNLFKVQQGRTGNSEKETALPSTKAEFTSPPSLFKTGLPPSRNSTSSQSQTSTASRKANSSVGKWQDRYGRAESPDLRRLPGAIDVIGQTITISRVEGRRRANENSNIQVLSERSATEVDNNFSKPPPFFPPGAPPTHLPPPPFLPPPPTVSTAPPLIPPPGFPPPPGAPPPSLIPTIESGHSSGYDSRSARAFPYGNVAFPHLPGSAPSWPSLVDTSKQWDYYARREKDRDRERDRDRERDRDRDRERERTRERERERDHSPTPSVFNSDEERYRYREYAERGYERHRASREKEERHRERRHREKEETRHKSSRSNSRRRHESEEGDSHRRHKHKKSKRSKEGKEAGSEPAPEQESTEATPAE
As to the kind of experiment: UV cross-linking, RNase I, IP.

For series [7], the target named is CPSF complex with HA-CPSF30 full length (human? (HEK293), UniProt Q10570;Q9C0J8;Q9P2I0;Q9UKF6;Q6UN15;O95639-2;Q92797 …). As to the kind of experiment: UV cross-linking.
The target of the next series is Flag-CPSF30 full length (UniProt O95639-2 1-244). As to the kind of experiment: UV cross-linking.
The target in series [8] is Flag-CPSF30 (baculovirus) (UniProt O95639-2 1-244). As to the kind of experiment: UV cross-linking.

As for CUGCAAGAAACAAGUUAA (ssRNA) [SVL mutant (AAGAAA)], the binding result in series [1] is “no binding”.
Take AUGUACUAGGAGACACAAUAACGGCAAUGUUUUUAUUUGUA (ssRNA) [L3 mutant (AAUAAC)]: the binding result in series [2] and in series [3] was “no binding” throughout.
For the molecule AUGUACUAGGAGACACAAUAAAGGCAAUGUUUUUAUUUGUA (ssRNA) [L3 wild type], the binding result in series [4], in series [5] and in series [6] was “binds” each time.
As to CUGCAAUAAACAAGUUAA (ssRNA) [SVL wild type], the binding result (in series [7]; with Flag-CPSF30 full length; in series [8]; in series [1]) was “binds” in each case.
